Values of other authors, collected in US7531621B1, “PTH2 receptor selective compounds” (Societe de Conseils de Recherches et d'Applications …, priority 1999, dated 2009).

What was measured:
[1] = biological target: PTH2 receptor (Homo sapiens, UniProt P49190); settings: result in words, background
[2] = biological target: T1, PTH/PTHrP receptor (Homo sapiens, UniProt Q03431); settings: result in words, background
T1 sequence (Q03431 27-593): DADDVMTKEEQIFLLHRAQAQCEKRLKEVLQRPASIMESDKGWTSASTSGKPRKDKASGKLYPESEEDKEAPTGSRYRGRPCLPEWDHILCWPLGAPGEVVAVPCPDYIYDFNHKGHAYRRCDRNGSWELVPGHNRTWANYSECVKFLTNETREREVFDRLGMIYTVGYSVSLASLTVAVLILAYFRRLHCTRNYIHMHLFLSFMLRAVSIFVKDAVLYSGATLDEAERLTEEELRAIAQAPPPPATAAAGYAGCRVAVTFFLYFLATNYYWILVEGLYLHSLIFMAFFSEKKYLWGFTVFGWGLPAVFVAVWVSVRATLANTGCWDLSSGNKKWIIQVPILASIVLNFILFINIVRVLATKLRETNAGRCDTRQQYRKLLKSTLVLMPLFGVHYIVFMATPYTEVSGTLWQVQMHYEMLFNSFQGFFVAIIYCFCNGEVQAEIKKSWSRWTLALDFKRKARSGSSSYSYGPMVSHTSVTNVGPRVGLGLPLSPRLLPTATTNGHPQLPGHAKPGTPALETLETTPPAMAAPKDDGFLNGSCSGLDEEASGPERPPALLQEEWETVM

Chain of PTH2 receptor (P49190 25-550): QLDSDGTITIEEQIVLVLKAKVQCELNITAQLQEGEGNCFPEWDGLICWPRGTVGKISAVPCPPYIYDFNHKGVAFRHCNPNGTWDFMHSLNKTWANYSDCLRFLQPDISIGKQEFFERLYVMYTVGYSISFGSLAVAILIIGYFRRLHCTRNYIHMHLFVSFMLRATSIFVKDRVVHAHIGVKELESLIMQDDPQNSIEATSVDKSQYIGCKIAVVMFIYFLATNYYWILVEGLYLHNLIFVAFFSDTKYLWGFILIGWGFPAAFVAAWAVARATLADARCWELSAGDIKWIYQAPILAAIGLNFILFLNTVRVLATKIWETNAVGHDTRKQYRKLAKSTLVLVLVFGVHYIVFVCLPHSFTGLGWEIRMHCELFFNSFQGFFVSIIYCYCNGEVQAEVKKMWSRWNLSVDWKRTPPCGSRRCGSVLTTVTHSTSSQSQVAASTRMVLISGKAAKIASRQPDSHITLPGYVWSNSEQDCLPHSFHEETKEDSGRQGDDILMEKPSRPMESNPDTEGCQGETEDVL

Which “activation of the PTH2 receptor” value [1] does the source give for PTHrP (7-34) here?
The value was “weakly activate”.

Which results are given for Ile^5-PTHrP-(1-34) NH2?
binding and activation of the PTH/PTHrP receptor [2]: binds and activates both receptors; activation of the PTH2 receptor [1]: acts as a PTH-2 receptor agonist

With PTH-(1-34) as the substance, how does the “binding and activation of the PTH/PTHrP receptor” value [2] read?
The value was “binds and is activated by both”.

What about the “activation of the PTH2 receptor” value [1] of the same substance?
Its value is “selectively activated”.
